Laboratory results from patent US20240117018A1.

Legend:
Experiment in all cases: cell-based or functional assay
[1] = biological target: HIV-1 Env pseudovirus R1166.c01 (HIV-1)
[2] = biological target: HIV-1 Env pseudovirus X1632_S2_B10 (HIV-1)
[3] = biological target: HIV-1 Env pseudovirus 3016.v5.c45 (HIV-1)
[4] = biological target: HIV-1 Env pseudovirus X2088_c9 (HIV-1)
[5] = biological target: HIV-1 Env pseudovirus BJOX010000.06.2 (HIV-1)
[6] = biological target: HIV-1 Env pseudovirus 211-9 (HIV-1)
[7] = biological target: HIV-1 Env pseudovirus BJOX015000.11.5 (HIV-1)
[8] = biological target: HIV-1 Env pseudovirus 3817.v2.c59 (HIV-1)
[9] = biological target: HIV-1 Env pseudovirus 235-47 (HIV-1)
[10] = biological target: Env of HIV-1 pseudovirus TRO.11 (HIV-1)
[11] = biological target: Env of HIV-1 pseudovirus HIV-001428-2.42 (HIV-1)
[12] = biological target: Env of HIV-1 pseudovirus 62357_14_D3_4589 (HIV-1)
[13] = biological target: Env of HIV-1 pseudovirus 1056_10_TA11_1826 (HIV-1)
[14] = biological target: Env of HIV-1 pseudovirus HIV-16845-2.22 (HIV-1)
[15] = biological target: Env of HIV-1 pseudovirus 6240_08_TA5_4622 (HIV-1)
[16] = biological target: Env of HIV-1 pseudovirus 191084 B7-19 (HIV-1)
[17] = biological target: Env of HIV-1 pseudovirus 1012_11_TC21_3257 (HIV-1)
[18] = biological target: Env of HIV-1 pseudovirus Ce0393_C3 (HIV-1)
[19] = biological target: Env of HIV-1 pseudovirus 928-28 (HIV-1)
[20] = biological target: Env of HIV-1 pseudovirus TRJO4551.58 (HIV-1)
[21] = biological target: Env of HIV-1 pseudovirus 249M B10 (HIV-1)
[22] = biological target: Env of HIV-1 pseudovirus 246F C1G (HIV-1)
[23] = biological target: Env of HIV-1 pseudovirus CNE17 (HIV-1)
[24] = biological target: Env of HIV-1 pseudovirus Q769.d22 (HIV-1)
[25] = biological target: Env of HIV-1 pseudovirus AC10.0.29 (HIV-1)
[26] = biological target: Env of HIV-1 pseudovirus Ce2010_F5 (HIV-1)

Substance: 3BNC117 (antibody)
- IC50 (Titer in TZM.bl cells) [1]: 0.17 µg/mL
- IC80 (Titer in TZM.bl cells) [1]: 0.64 µg/mL
- IC50 (Titer in TZM.bl cells) [2]: 15.7 µg/mL
- IC80 (Titer in TZM.bl cells) [2]: > 50 µg/mL
- IC50 (Titer in TZM.bl cells) [3]: 1.38 µg/mL
- IC80 (Titer in TZM.bl cells) [3]: > 30 µg/mL
- IC50 (Titer in TZM.bl cells) [4]: > 50 µg/mL
- IC80 (Titer in TZM.bl cells) [4]: > 50 µg/mL
- IC50 (Titer in TZM.bl cells) [5]: 1.58 µg/mL
- IC80 (Titer in TZM.bl cells) [5]: 10.4 µg/mL
- IC50 (Titer in TZM.bl cells) [6]: 0.35 µg/mL
- IC80 (Titer in TZM.bl cells) [6]: 1.28 µg/mL
- IC50 (Titer in TZM.bl cells) [7]: 0.05 µg/mL
- IC80 (Titer in TZM.bl cells) [7]: 0.32 µg/mL
- IC50 (Titer in TZM.bl cells) [8]: 0.15 µg/mL
- IC80 (Titer in TZM.bl cells) [8]: 0.52 µg/mL
- IC50 (Titer in TZM.bl cells) [9]: 0.03 µg/mL
- IC80 (Titer in TZM.bl cells) [9]: 0.12 µg/mL

Substance: 8ANC195 (antibody)
- IC50 (Titer in TZM.bl cells) [1]: 4.83 µg/mL
- IC80 (Titer in TZM.bl cells) [1]: 4.83 µg/mL
- IC50 (Titer in TZM.bl cells) [2]: 0.47 µg/mL
- IC80 (Titer in TZM.bl cells) [2]: 4.11 µg/mL
- IC50 (Titer in TZM.bl cells) [3]: 0.87 µg/mL
- IC80 (Titer in TZM.bl cells) [3]: > 50 µg/mL
- IC50 (Titer in TZM.bl cells) [4]: > 50 µg/mL
- IC80 (Titer in TZM.bl cells) [4]: > 50 µg/mL
- IC50 (Titer in TZM.bl cells) [5]: 0.85 µg/mL
- IC80 (Titer in TZM.bl cells) [5]: 5.84 µg/mL
- IC50 (Titer in TZM.bl cells) [6]: 1.34 µg/mL
- IC80 (Titer in TZM.bl cells) [6]: 8.43 µg/mL
- IC50 (Titer in TZM.bl cells) [7]: 0.97 µg/mL
- IC80 (Titer in TZM.bl cells) [7]: 4.3 µg/mL
- IC50 (Titer in TZM.bl cells) [8]: 1 µg/mL
- IC80 (Titer in TZM.bl cells) [8]: 5.3 µg/mL
- IC50 (Titer in TZM.bl cells) [9]: > 50 µg/mL
- IC80 (Titer in TZM.bl cells) [9]: > 50 µg/mL

Substance: 10-1074 (antibody)
- IC50 [10]: 0.008 µg/mL
- IC80 [10]: 0.057 µg/mL
- IC50 [11]: 0.044 µg/mL
- IC80 [11]: 0.261 µg/mL
- IC50 [12]: > 50 µg/mL
- IC80 [12]: > 50 µg/mL
- IC50 [13]: 0.038 µg/mL
- IC80 [13]: 0.272 µg/mL
- IC50 [14]: 1.17 µg/mL
- IC80 [14]: 5.83 µg/mL
- IC50 [15]: 0.068 µg/mL
- IC80 [15]: 0.306 µg/mL
- IC50 [16]: 0.032 µg/mL
- IC80 [16]: 0.128 µg/mL
- IC50 [17]: 0.008 µg/mL
- IC80 [17]: 0.059 µg/mL
- IC50 [18]: > 50 µg/mL
- IC80 [18]: > 50 µg/mL
- IC50 [19]: 0.847 µg/mL
- IC80 [19]: 4.7 µg/mL
- IC50 [20]: 0.17 µg/mL
- IC80 [20]: 0.634 µg/mL
- IC50 [21]: > 50 µg/mL
- IC80 [21]: > 50 µg/mL
- IC50 [22]: 0.022 µg/mL
- IC80 [22]: 0.111 µg/mL
- IC50 [23]: 2.69 µg/mL
- IC80 [23]: 13.3 µg/mL
- IC50 [24]: > 50 µg/mL
- IC80 [24]: > 50 µg/mL
- IC50 [25]: 0.022 µg/mL
- IC80 [25]: 0.11 µg/mL
- IC50 [26]: > 50 µg/mL
- IC80 [26]: > 50 µg/mL

Substance: 10E8 (antibody)
- IC50 [10]: 0.034 µg/mL
- IC80 [10]: 0.25 µg/mL
- IC50 [11]: 0.809 µg/mL
- IC80 [11]: 7.3 µg/mL
- IC50 [12]: 0.119 µg/mL
- IC80 [12]: 1.06 µg/mL
- IC50 [13]: 0.134 µg/mL
- IC80 [13]: 1.03 µg/mL
- IC50 [14]: 0.068 µg/mL
- IC80 [14]: 0.495 µg/mL
- IC50 [15]: 0.756 µg/mL
- IC80 [15]: 5.59 µg/mL
- IC50 [16]: 5.16 µg/mL
- IC80 [16]: > 10 µg/mL
- IC50 [17]: 0.244 µg/mL
- IC80 [17]: 4.21 µg/mL
- IC50 [18]: 1.18 µg/mL
- IC80 [18]: 7.42 µg/mL
- IC50 [19]: 0.384 µg/mL
- IC80 [19]: 1.96 µg/mL
- IC50 [20]: 0.475 µg/mL
- IC80 [20]: 4.78 µg/mL
- IC50 [21]: 1.27 µg/mL
- IC80 [21]: 9.05 µg/mL
- IC50 [22]: 2.22 µg/mL
- IC80 [22]: 9.94 µg/mL
- IC50 [23]: 1.11 µg/mL
- IC80 [23]: 5.25 µg/mL
- IC50 [24]: 1.67 µg/mL
- IC80 [24]: 10 µg/mL
- IC50 [25]: 0.132 µg/mL
- IC80 [25]: 1.53 µg/mL
- IC50 [26]: 1.84 µg/mL
- IC80 [26]: 8.61 µg/mL

Substance: PG9 (antibody)
- IC50 [10]: 43.2 µg/mL
- IC80 [10]: > 50 µg/mL
- IC50 [11]: 0.101 µg/mL
- IC80 [11]: 0.25 µg/mL
- IC50 [12]: > 50 µg/mL
- IC80 [12]: > 50 µg/mL
- IC50 [13]: 6.34 µg/mL
- IC80 [13]: 38.3 µg/mL
- IC50 [14]: 4.4 µg/mL
- IC80 [14]: > 50 µg/mL
- IC50 [15]: 1.75 µg/mL
- IC80 [15]: 6.33 µg/mL
- IC50 [16]: 0.043 µg/mL
- IC80 [16]: 0.202 µg/mL
- IC50 [17]: 0.172 µg/mL
- IC80 [17]: 0.605 µg/mL
- IC50 [18]: 0.02 µg/mL
- IC80 [18]: 0.055 µg/mL
- IC50 [19]: 0.101 µg/mL
- IC80 [19]: 0.45 µg/mL
- IC50 [20]: 0.503 µg/mL
- IC80 [20]: 4.06 µg/mL
- IC50 [21]: 0.095 µg/mL
- IC80 [21]: 0.29 µg/mL
- IC50 [22]: > 50 µg/mL
- IC80 [22]: > 50 µg/mL
- IC50 [23]: 0.21 µg/mL
- IC80 [23]: 0.484 µg/mL
- IC50 [24]: 0.025 µg/mL
- IC80 [24]: 0.068 µg/mL
- IC50 [25]: 0.117 µg/mL
- IC80 [25]: 0.845 µg/mL
- IC50 [26]: > 50 µg/mL
- IC80 [26]: > 50 µg/mL

Substance: PG16 (antibody)
- IC50 [10]: 1.92 µg/mL
- IC80 [10]: 49.6 µg/mL
- IC50 [11]: 0.039 µg/mL
- IC80 [11]: 0.25 µg/mL
- IC50 [12]: > 50 µg/mL
- IC80 [12]: > 50 µg/mL
- IC50 [13]: 0.315 µg/mL
- IC80 [13]: 1.95 µg/mL
- IC50 [14]: 3.13 µg/mL
- IC80 [14]: > 50 µg/mL
- IC50 [15]: > 50 µg/mL
- IC80 [15]: > 50 µg/mL
- IC50 [16]: 0.024 µg/mL
- IC80 [16]: 0.238 µg/mL
- IC50 [17]: 0.03 µg/mL
- IC80 [17]: 0.219 µg/mL
- IC50 [18]: 0.002 µg/mL
- IC80 [18]: 0.006 µg/mL
- IC50 [19]: 0.034 µg/mL
- IC80 [19]: 0.237 µg/mL
- IC50 [20]: 1.01 µg/mL
- IC80 [20]: 24.5 µg/mL
- IC50 [21]: 0.026 µg/mL
- IC80 [21]: 1.25 µg/mL
- IC50 [22]: > 50 µg/mL
- IC80 [22]: > 50 µg/mL
- IC50 [23]: 0.029 µg/mL
- IC80 [23]: 0.132 µg/mL
- IC50 [24]: 0.005 µg/mL
- IC80 [24]: 0.018 µg/mL
- IC50 [25]: 0.023 µg/mL
- IC80 [25]: 0.417 µg/mL
- IC50 [26]: > 50 µg/mL
- IC80 [26]: > 50 µg/mL

Substance: VRC07 (antibody)
- IC50 (Titer in TZM.bl cells) [1]: 0.81 µg/mL
- IC80 (Titer in TZM.bl cells) [1]: 3.17 µg/mL
- IC50 (Titer in TZM.bl cells) [2]: 0.023 µg/mL
- IC80 (Titer in TZM.bl cells) [2]: 0.107 µg/mL
- IC50 (Titer in TZM.bl cells) [3]: 0.095 µg/mL
- IC80 (Titer in TZM.bl cells) [3]: 0.392 µg/mL
- IC50 (Titer in TZM.bl cells) [4]: > 50 µg/mL
- IC80 (Titer in TZM.bl cells) [4]: > 50 µg/mL
- IC50 (Titer in TZM.bl cells) [5]: 1.06 µg/mL
- IC80 (Titer in TZM.bl cells) [5]: 10 µg/mL
- IC50 (Titer in TZM.bl cells) [6]: 5.92 µg/mL
- IC80 (Titer in TZM.bl cells) [6]: 38 µg/mL
- IC50 (Titer in TZM.bl cells) [7]: 0.054 µg/mL
- IC80 (Titer in TZM.bl cells) [7]: 0.479 µg/mL
- IC50 (Titer in TZM.bl cells) [8]: 1.9 µg/mL
- IC80 (Titer in TZM.bl cells) [8]: 19.8 µg/mL
- IC50 (Titer in TZM.bl cells) [9]: 0.024 µg/mL
- IC80 (Titer in TZM.bl cells) [9]: 0.075 µg/mL
